Assay results taken from publication PMC7921410, “Structure of mammalian Mediator complex reveals Tail module architecture and interaction with a conserved core” (Nature Communications, 2021).

T1: MED17 (mouse (Mus musculus; endogenous in CH12), UniProt Q8VCD5 1-649)
T1 construct: MED17, Mus musculus, endogenous Head module scaffold subunit of Mediator; source: endogenous, CH12 mouse B lymphoma nuclear extract; immunopurified as part of Mediator (FLAG M2 agarose, FLAG peptide elution)
T1 sequence (looked up): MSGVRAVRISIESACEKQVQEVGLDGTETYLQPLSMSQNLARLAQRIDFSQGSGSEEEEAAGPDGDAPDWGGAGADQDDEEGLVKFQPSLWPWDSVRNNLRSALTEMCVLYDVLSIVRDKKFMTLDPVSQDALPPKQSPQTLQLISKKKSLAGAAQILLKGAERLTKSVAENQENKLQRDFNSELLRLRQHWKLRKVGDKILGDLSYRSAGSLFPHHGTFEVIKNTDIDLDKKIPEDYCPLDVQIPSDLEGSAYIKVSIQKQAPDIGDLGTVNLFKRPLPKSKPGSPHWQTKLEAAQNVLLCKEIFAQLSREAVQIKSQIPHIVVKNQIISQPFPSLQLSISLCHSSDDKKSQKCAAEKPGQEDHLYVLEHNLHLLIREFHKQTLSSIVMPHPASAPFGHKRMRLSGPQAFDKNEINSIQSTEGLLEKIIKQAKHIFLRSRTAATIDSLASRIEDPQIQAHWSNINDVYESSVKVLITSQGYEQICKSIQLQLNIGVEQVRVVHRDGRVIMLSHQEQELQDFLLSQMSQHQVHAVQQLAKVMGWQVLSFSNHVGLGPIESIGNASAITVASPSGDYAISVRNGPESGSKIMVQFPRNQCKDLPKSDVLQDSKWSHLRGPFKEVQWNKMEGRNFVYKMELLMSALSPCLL

T2: MED27 (mouse (Mus musculus; endogenous in CH12), UniProt Q9DB40 1-311)
T2 construct: MED27, Mus musculus, endogenous upper Tail subunit of Mediator; source: endogenous, CH12 mouse B lymphoma nuclear extract; immunopurified as part of Mediator (FLAG M2 agarose, FLAG peptide elution)
T2 sequence (looked up): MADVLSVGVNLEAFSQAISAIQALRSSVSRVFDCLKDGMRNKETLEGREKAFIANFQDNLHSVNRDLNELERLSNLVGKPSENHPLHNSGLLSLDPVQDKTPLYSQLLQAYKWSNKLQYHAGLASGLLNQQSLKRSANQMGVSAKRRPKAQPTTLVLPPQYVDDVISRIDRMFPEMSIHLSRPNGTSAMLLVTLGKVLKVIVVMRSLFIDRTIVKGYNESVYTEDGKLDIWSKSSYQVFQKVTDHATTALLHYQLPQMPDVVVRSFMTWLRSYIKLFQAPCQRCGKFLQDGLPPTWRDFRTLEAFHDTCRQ

T3: MED24 (mouse (Mus musculus; endogenous in CH12), UniProt Q99K74 1-987)
T3 construct: MED24, Mus musculus, endogenous lower Tail subunit of Mediator; source: endogenous, CH12 mouse B lymphoma nuclear extract; immunopurified as part of Mediator (FLAG M2 agarose, FLAG peptide elution)
T3 sequence (looked up): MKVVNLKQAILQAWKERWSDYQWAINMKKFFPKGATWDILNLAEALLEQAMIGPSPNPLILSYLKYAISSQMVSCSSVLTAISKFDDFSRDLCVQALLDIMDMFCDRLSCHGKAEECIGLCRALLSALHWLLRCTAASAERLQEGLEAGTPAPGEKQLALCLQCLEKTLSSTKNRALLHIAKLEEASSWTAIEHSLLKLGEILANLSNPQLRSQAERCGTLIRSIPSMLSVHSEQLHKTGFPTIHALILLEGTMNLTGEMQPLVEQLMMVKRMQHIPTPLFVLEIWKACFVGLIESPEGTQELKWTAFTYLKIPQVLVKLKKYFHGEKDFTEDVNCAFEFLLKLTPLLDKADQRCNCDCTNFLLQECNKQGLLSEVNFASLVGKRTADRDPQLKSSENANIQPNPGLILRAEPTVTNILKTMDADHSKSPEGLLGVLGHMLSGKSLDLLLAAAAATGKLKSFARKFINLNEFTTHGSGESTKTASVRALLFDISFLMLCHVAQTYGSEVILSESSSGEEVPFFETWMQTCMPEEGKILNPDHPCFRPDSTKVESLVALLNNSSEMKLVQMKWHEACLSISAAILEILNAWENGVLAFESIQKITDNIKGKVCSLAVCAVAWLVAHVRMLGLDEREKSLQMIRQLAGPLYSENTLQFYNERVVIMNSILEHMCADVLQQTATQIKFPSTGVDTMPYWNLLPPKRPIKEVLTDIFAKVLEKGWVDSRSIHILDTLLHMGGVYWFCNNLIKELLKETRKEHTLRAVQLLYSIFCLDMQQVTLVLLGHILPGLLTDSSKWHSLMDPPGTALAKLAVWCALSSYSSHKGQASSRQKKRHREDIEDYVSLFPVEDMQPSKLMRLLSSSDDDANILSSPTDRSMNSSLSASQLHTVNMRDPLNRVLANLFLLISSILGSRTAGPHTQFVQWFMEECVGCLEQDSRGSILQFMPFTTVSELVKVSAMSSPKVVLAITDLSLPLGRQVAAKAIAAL

T4: MED23 (mouse (Mus musculus; endogenous in CH12), UniProt Q80YQ2 1-1367)
T4 construct: MED23, Mus musculus, endogenous lower Tail subunit of Mediator; Model building started from the X-ray structure of human MED23 (PDB 6H02); source: endogenous, CH12 mouse B lymphoma nuclear extract; immunopurified as part of Mediator (FLAG M2 agarose, FLAG peptide elution)
T4 sequence (looked up): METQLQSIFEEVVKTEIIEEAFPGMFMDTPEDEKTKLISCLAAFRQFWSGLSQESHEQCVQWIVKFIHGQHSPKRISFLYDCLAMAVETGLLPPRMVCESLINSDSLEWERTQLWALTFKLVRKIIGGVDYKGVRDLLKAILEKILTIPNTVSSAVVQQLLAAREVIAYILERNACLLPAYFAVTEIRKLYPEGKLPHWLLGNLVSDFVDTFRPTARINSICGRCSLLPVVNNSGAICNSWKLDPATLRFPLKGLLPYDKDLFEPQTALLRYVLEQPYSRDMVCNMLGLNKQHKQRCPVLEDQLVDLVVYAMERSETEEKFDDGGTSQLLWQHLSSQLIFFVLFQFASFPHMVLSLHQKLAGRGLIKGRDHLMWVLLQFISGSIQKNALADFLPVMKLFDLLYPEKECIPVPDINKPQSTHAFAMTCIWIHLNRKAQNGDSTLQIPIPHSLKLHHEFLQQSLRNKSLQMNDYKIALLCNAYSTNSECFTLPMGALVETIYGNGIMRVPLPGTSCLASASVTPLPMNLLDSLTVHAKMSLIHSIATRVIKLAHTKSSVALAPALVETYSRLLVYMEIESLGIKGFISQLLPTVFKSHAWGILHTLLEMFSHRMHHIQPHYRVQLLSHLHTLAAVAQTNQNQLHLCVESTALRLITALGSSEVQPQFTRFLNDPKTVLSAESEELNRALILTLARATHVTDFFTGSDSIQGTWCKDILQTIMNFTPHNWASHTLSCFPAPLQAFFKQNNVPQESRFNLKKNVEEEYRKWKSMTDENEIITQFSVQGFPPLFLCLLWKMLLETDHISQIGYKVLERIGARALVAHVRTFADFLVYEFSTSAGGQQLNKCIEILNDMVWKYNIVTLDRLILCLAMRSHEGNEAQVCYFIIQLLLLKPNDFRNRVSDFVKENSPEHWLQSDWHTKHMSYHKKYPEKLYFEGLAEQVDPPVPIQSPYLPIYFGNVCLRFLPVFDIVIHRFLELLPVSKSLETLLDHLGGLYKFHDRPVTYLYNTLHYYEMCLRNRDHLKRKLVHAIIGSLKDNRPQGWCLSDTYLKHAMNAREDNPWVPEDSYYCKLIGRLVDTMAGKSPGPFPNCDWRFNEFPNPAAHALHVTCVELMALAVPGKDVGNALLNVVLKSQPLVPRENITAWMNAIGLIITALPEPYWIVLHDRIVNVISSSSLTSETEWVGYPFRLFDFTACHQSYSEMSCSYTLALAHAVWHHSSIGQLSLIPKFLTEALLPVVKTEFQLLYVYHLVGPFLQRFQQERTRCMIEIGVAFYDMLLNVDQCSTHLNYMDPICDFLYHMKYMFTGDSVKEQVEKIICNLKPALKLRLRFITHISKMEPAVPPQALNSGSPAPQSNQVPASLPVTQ

B1: MED20 (natural protein, mouse (Mus musculus; endogenous in CH12), UniProt Q9R0X0 1-212, looked up)
chain: MGVTCVSQMPVAEGKSLQQTVELLTKKLEMLGAEKQGTFCVDCETYHTAASTLGSQGQAGKLMYVMHNSEYPLSCFALFENGPCLIADTNFDVLMVKLKGFFQSAKASKIETRGTRYQYCDFLVKVGTVTMGPSARGISVEVEYGPCVVASDCWSLLLEFLQSFLGSHAPGAPTVFGNRHDAVYGPADTMIQYMELFNKIRKQQQVPVAGIR
notes: MED20, Mus musculus, endogenous Head module subunit of Mediator; source: endogenous, CH12 mouse B lymphoma nuclear extract; immunopurified as part of Mediator (FLAG M2 agarose, FLAG peptide elution)
B2: MED16 (natural protein, mouse (Mus musculus; endogenous in CH12), UniProt Q6PGF3 1-828, looked up)
chain: MDLAYVCEWEKWAKSTYCPSLPLACAWSCRNLIAFTTDLRNDDQDLTHMIHILDTEHPWEVHSVSSGHSEAITCLEWDQSGSRLLSADADGQIKCWSMADHLANSWESSVGSQVEGDPIVALSWLHNGVKLALHVEKSGASSFGEKFSRVKFSPSLTLFGGKPMEGWIAVTVSGLVTVSLLKPSGQVLTSTESLCRLRGRVALADIAFTGGGNIVVAAADGSSASPVKFYKVCVSVVSEKCRIDTEILPSLFMRCTTDPNRKDRFPAITHLKFLARDMSEQVLLCASSQTSSLVECWSLRKEGLPVNNIFQQISPVVGDKQPMILKWRILSATNDLDRVSAVALPKLPISLTNTDLKVASDTQFYPGLGLALAFQDGSVHMVHRLSLQTMAVFYSSAPRSLDEPALKRPRTTCPAVHFKAMQLSWTSLALVGIDNHGKLSMLRISPSLGHPLEPKLALQHLLFLLEYCMVTGYDWWDILLHVQPGMVQSLVERLHEEYTRQKPALQQVLSTRILAMKASLCKLSPCTVARVCDYHTKLFLMAITSTLKSLLRPHFLNTPDKSPGDRLAEICAKITDVDIDKVMINLKTEEFVLDMNTLQALQQLLQWVGDFVLYLLVSLPNQGSPLRPGHSFLRDGTSLGMLRELMVVIRIWGLLKPSCLPVYTATSDTQDSMSLLFRLLTKLWICCRDEGAASEPDEGLVDECCLLPSQLLVPNLDWLPASDGLVSRLQPKQPLRLRFGRAPTLPSSTSTLQLDGLTRAPGQPKIDHLRRLHLGAYPTEECKACTRCGCVTMLKSPNKTTAVTQWEQRWIKNCLCGGLWRRVPLSCS
notes: MED16, Mus musculus, endogenous lower Tail subunit of Mediator; source: endogenous, CH12 mouse B lymphoma nuclear extract; immunopurified as part of Mediator (FLAG M2 agarose, FLAG peptide elution)
B3: MED22 (natural protein, mouse (Mus musculus; endogenous in CH12), UniProt Q62276 1-200, looked up)
chain: MAQQRALPQSKETLLQSYNKRLKDDIKSIMDNFTEIIKTAKIEDETQVSRATQGEQDNYEMHVRAANIVRAGESLMKLVSDLKQFLILNDFPSVNEAIDQRNQQLRALQEECDRKLITLRDEVSIDLYELEEEYYSSSSSLCEANDLPLCEAYWRLDLDADSADGLSAPLLASPETGAGPLQSAAPVHSHGGGPGPTEHT
notes: MED22, Mus musculus, endogenous Head module subunit of Mediator; source: endogenous, CH12 mouse B lymphoma nuclear extract; immunopurified as part of Mediator (FLAG M2 agarose, FLAG peptide elution)

How the values were obtained:
Test in all cases: cryo-EM structure; endogenous mouse Mediator immunopurified from CH12 nuclear extract through 3×FLAG-MED19 or 3×FLAG-MED25; eluted in 50 mM HEPES pH 7.9, 100 mM KCl, 5% glycerol, 1 mM EDTA, 0.005% NP-40; map at 4.0 Å overall, focused refinement of the MED1 and knob/hook ends (6-10 Å)
Settings in all cases: both partners purified
MED17 = molecular target: T1, MED17
MED27 = molecular target: T2, MED27
MED24 = molecular target: T3, MED24
MED23 = molecular target: T4, MED23

Row | Binder | binding result (MED17) | binding result (MED27) | binding result (MED24) | binding result (MED23)
1 | B1 | binds | binds | – | –
2 | B2 | – | – | binds | binds
3 | B3 | binds | – | – | –
